Our source for the Kd and rate of degradation of 100 nM ADAMTS13 by 10 nM active plasmin (Prolytix, not VFK-blocked) values is article PMC11032339.

Assay [1] deals with soluble full-length recombinant ADAMTS13 (UniProt Q76LX8). The assay is described as follows: SPR; Biacore T200; ADAMTS13, MDTCS (or fibrinogen) immobilised on CM5 by amine coupling (500-1000 RU); analytes 0-7 µM (or 0-3.5 µM) with 5 mM AEBSF and 10 µM VFKck; 20 mM HEPES-NaOH, 150 mM NaCl, pH 7.4, 0.01% Tween-20, 10 mM CaCl2, 10 µM ZnCl2; 20 µl/min, 25 °C; equilibrium responses fitted to a one-site binding model.
Chain of UniProt Q76LX8 (Q76LX8 75-1427): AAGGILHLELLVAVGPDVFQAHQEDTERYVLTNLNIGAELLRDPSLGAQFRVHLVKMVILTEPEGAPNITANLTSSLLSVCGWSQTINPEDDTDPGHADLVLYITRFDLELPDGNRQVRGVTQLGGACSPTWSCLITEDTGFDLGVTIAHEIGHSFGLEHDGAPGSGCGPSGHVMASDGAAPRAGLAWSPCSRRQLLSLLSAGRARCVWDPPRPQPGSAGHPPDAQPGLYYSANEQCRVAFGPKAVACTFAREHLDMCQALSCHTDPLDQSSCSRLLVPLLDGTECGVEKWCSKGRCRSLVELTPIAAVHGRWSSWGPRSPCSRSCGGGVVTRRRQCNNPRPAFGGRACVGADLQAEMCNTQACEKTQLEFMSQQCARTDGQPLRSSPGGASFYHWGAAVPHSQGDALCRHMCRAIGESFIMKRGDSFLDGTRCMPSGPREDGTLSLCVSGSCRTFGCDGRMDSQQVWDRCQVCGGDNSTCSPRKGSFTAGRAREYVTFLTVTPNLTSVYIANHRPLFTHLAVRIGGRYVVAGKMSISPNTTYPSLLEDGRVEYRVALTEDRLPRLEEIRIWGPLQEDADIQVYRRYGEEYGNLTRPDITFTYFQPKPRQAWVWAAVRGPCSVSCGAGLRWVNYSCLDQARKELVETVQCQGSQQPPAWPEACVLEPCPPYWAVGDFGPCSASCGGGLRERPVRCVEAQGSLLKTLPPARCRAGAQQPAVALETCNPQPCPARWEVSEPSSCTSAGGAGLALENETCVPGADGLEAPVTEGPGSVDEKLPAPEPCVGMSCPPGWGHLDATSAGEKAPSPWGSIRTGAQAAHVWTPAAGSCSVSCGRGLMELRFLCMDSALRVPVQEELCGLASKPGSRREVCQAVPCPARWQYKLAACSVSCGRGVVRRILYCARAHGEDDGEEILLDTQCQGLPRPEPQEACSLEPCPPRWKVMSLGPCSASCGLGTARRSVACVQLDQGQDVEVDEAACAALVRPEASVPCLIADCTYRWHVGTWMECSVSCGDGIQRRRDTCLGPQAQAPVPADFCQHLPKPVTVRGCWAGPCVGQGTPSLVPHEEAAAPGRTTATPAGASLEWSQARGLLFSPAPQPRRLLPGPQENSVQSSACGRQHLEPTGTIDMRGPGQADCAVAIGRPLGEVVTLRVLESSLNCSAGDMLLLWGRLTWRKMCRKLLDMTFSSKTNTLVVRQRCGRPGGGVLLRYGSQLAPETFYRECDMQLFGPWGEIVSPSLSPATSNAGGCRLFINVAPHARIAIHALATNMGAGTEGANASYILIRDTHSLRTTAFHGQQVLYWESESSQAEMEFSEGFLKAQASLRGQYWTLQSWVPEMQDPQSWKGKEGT

In the next assay the target is fibrinogen. The assay is described as above.
Assay [2] addresses soluble full-length recombinant ADAMTS13 (UniProt Q76LX8).

On to “17-kringle form of apolipoprotein(a) (natural protein)”, for which the Kd in assay [1] came to 4000 nM; with fibrinogen, 2400 nM.
As to Glu-plasminogen (natural protein), in assay [1], the Kd turned out to be 2800 nM.
As to Lys-plasminogen (natural protein), the Kd in assay [1] is 1000 nM.
Turning to Mini-plasminogen (domain or fragment), the dissociation constant (Kd) in assay [1] was 1500 nM.
Consider VFK-plasmin (enzyme), for which the Kd in assay [1] stood at 1800 nM. In assay [2], the rate of degradation of 100 nM ADAMTS13 by 10 nM active plasmin (Prolytix, not VFK-blocked) at 37 °C in the presence of 5 mM TXA; Western blot densitometry of the intact ADAMTS13 band was found to be 0.05 nM/min and the rate of degradation of 100 nM ADAMTS13 by 10 nM active plasmin (Prolytix, not VFK-blocked) at 37 °C without TXA; Western blot densitometry of the intact ADAMTS13 band stood at 1.6 nM/min.
